Experimental data taken from patent publication US10233219 (TUFTS MEDICAL CENTER, dated 2019).
Non-standard residues stand in square brackets, D forms with d. No end group written: not given here. *: point of attachment. PEG8 = NCCOCCOCCOCCOCCOCCOCCOCCOCCC(=O)O; Palmitoyl = CCCCCCCCCCCCCCCC(=O)*; Tic = O=C(O)[C@@H]1Cc2ccccc2CN1

How the values were obtained:
Experiment in all cases: cell-based or functional assay
[1] = target: T1, mouse CMKLR1 (chemerin receptor) (mouse, UniProt P97468 1-371)
T1 sequence (looked up): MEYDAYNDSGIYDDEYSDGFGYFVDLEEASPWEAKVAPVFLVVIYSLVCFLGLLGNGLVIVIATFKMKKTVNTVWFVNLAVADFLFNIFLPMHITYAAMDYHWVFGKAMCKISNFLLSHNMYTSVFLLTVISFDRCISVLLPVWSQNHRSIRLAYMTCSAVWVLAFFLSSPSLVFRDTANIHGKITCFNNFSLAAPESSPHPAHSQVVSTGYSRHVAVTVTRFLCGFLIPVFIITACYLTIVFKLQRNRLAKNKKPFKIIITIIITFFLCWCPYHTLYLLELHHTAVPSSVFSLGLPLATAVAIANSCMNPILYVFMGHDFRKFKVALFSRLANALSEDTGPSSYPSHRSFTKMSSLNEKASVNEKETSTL

neurokinin 1 receptor = neurokinin 1 receptor (human, UniProt P25103 1-407)
Sequence of neurokinin 1 receptor (P25103 whole entry): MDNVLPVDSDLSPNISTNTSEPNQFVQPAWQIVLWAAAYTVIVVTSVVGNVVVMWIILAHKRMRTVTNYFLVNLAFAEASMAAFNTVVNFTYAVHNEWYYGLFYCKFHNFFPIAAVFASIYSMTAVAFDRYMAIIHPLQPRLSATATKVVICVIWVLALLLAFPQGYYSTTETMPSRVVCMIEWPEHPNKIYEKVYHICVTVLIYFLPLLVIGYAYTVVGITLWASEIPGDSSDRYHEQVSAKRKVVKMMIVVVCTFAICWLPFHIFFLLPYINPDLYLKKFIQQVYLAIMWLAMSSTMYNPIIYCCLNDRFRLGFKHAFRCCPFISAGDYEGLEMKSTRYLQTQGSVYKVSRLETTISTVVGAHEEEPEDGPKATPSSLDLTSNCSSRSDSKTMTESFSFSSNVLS

[2] = target: T2, human CMKLR1 (chemerin receptor) (human, UniProt Q99788 1-373)
T2 sequence (looked up): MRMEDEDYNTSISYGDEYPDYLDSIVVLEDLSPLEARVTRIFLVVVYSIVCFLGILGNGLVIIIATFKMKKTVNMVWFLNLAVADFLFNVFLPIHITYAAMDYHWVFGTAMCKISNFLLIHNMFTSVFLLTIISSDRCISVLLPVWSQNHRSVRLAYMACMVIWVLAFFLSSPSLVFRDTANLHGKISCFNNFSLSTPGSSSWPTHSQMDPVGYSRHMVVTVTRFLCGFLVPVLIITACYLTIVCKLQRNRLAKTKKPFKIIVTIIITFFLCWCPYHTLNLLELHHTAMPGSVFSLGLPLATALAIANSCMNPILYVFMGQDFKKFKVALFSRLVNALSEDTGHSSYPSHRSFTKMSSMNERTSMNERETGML

B1: s-Chem 21-157 (soluble recombinant human chemerin corresponding to amino acids 21-157) (ligand)
chain: ELTEAQRRGLQVALEEFHKHPPVQWAFQETSVESAVDTPFPAGIFVRLEFKLQQTSCRKRDWKKPECKVRPNGRKRKCLACIKLGSEDKVLGRLVHCPIETQVLREAEEHQETQCLRVQRAGEDPHSFYFPGQFAFS
Question: For B1, which “EC50” value [1] is on record?
Answer: 13.7 nM

Question: And the pEC50 [1]?
Answer: 8.01

B2: l-SubP-COOH (lipidated Substance P with a C-terminal free acid) (peptide)
peptide: {Palmitoyl-PEG8}-KGGRPKPQQFFGLM-OH
SMILES: CCCCCCCCCCCCCCCC(=O)NCCOCCOCCOCCOCCOCCOCCOCCOCCC(=O)N[C@@H](CCCCN)C(=O)NCC(=O)NCC(=O)N[C@@H](CCCNC(=N)N)C(=O)N1CCC[C@H]1C(=O)N[C@@H](CCCCN)C(=O)N1CCC[C@H]1C(=O)N[C@@H](CCC(N)=O)C(=O)N[C@@H](CCC(N)=O)C(=O)N[C@@H](Cc1ccccc1)C(=O)N[C@@H](Cc1ccccc1)C(=O)NCC(=O)N[C@@H](CC(C)C)C(=O)N[C@@H](CCSC)C(=O)O
Question: How did the EC50 (neurokinin 1 receptor) turn out when B2 was run?
Answer: 6.1 nM

B3: l-Stable Chem (lipidated stable chemerin peptide) (peptide)
peptide: {Palmitoyl-PEG8}-GG[dY]FLPSQF[dA][Tic]S
modifications: also: D-Ser, which S not given here
Question: What does the source list for B3?
Answer: EC50 [1]: 2 nM; EC50 (nM), + wash [1]: 10.4 nM; pEC50 [1]: 8.7; pEC50, + wash [1]: 7.96; EC50 [2]: 2.6 nM; EC50 (nM), + wash [2]: 27.1 nM; pEC50 [2]: 8.59; pEC50, + wash [2]: 7.6

B4: s-Stable Chem (soluble stable chemerin peptide) (peptide)
peptide: H-[dY]FLPSQF[dA][Tic]S
modifications: also: D-Ser, which S not given here
Question: How did the “EC50” value [1] turn out when B4 was run?
Answer: 11.9 nM

Question: And the pEC50 [1]?
Answer: 7.92

Question: What about the “EC50” value [2] of the same binder?
Answer: 60.6 nM

Question: And the pEC50 [2]?
Answer: 7.21
